Results taken from the domain aggregation screens of Martell et al. (2025).

Test: soluble fraction after stress (log2 fold change); higher = more stays soluble; pooled small domains, quantitative proteomics
Conditions: stress: pH 4
Procedure, shortened: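 Aggregation propensity is read out as the fold change in how much of each domain remains soluble after acid stress. The custom small-domain libraries were pooled, held at pH 4 and analysed with high-throughput quantitative proteomics. On the log2 scale used, higher values mean more of the domain stayed soluble.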

Row | Sequence | soluble fraction (log2)
1 | HMEDDIRSSIRTLDQFISKNQITLSKDVKNYILQLLSNDRMVTINELEKIKIYYDSNENIDLDTVKILLN | -1.4
2 | HMEDEEILNEIRHTEQYVYYFGNYIMEHHVSRGLSKEKVIASLARELQIEIADIREDFDGMIEQIKTNILN | -0.416
3 | HMEDESSIERYLGSGAIKGIGPSLAARIVKKFGKDTFRIIEQEPERLAEIKGISERKAMEISTLMEEK | 0.0126
4 | HMEDGRLPPPGTVLRREYKGRAVFVRVLPKGFEFEGEVYRSLSAIAAKVTGSHWNGFRFFGLHE | 0.199
5 | HMEDHMVVFGKGGRITRLPDKATVLEYLDAANFFASRSSVVKVNGKLASLDQTLRDGDSIEIVD | -0.473
6 | HMEDINAVLAENLRRLRESRRLSLDAVARLTGVSKSMLGQIERGEVNPTVSTMWKIAGGLKVNFTALFRRE | ≥ 0.43
7 | HMEDIQPSVIFQNNMIDGFKKFGVSFLQNRRNVNVNTLNGLASAGTYPKWQQLLVNKISYIDMLLSTGG | -0.137
8 | HMEDKIIVTVPGEYHLERIDRFLAANLEEDLSRSLIQRYIRENLITVNGEAVRANYKVKTDDEILITFPQ | -1.04
9 | HMEDLAERLDNLSTMYAKMDPVRAAQVLLESKNKSENIEVLKRLKPKSLGLILENMPPREAYDYVSELQ | 0.0298
10 | HMEDLGYVKVASQTAAIRKSAAVQAGQIGTVHEGETYRYLGEEEGWYLVEYNGQKAYISWDDGEL | -0.553
11 | HMEDMMKALLDVVRAQHTATEGSEERPFDINDIIDMALNITGRPEEPEEQQELSDTIQKLAESLAPDIFP | -0.596
12 | HMEDNKLKNEIKNELVSHLEKPYSVEDLADALKYHGSAAFKLIVQELAILERERAVVVTHDGNFKINSS | -0.0181
13 | HMEDPAVYYKILQIPPDASLSEIHRAFEKITSAWDPERYPHISSWKETSAKKLQEIRNAYEKLLILRETG | -0.00219
14 | HMEDPFLWVEKLGSSDWIEREESAEKLLEAGEASVEALRTALTHPDLEVRERVRELLSVISPL | -1.82
15 | HMEDPRVTEIKNLQQDLAKKFKPTQGPASASDAVERVTAITTVMTKVAALPEDLRSEAMQPGKKM | -0.0985
16 | HMEDQFWQNRAEMALASARRAGRIVTYAEMADAADIPAPQRIHKLTLWLEATMRQDHASGQPLRAALV | -0.0778
17 | HMEDQITNQQFTMTKQSILDLLVKKSYPPYELANELHLKKEEVLPIIRFLIAENEIHFKDGMLHLPH | -0.0688
18 | HMEDQLDSLKDIIYDYLENNELYYNDLQEFKKIIIENMEFIHPNLNHKLIDNNFFKLINFKLEYNF | -0.828
19 | HMEDSSSILNRMRKLIALLNRASEAYYKENKEIISNFEYDRLYDELLGLESRSNTVLSGSPTYKV | -1.21
20 | HMEDTFEYPVSVNGKLRFKIELPVSMEKDEIRNIVLNDERAKKWLATGTLTNLIVVPNRIINIVIK | 0.0025
21 | HMEDTSTLSIKHKIKELINQESPQAILSDDKLVELLAAQGIKIARRTIAKYRETMNIPTSAERKRQKRPP | 0.275
22 | HMEDVTLSLVVGEDLDGERLDVFLTWKLDRTRSQVQALIRDGKVRLEQGQRARPSMVVRSGMGISVSLEPR | -1.11
23 | HMEDYYKILGVSKDASIDDIKKSYRKLSLQNHPDRNKSPQASENFAKINSAYEVLSDQRKKRQYDMQQSM | ≥ 0.43
24 | HMEEAQWEFKWENTDSAEIHGPHSSSEMLKWQENSFFAKGVYVRKVGGDTTDFTDGKRIDFDLY | -1.69
25 | HMEEDPILVAQRFLNIFRQLHIFDQQRREEFNSMILALPPEIRGTFGVLPGGSVLQEYVDELEISKGMA | -1.33

Row | Sequence | soluble fraction (log2)
26 | HMEEDPVISQAQRQALFKLAHDHFGQEEGNKVILRLIGEHGLRSTTNMTASVYKTVTDALIQVIESMVEG | -0.444
27 | HMEEEDELALFLREERKNYDLTLTDVHEKTGIPQKVLKEFQWGDAQLTDRQRYTLTQYVEEAREYFQENA | -0.998
28 | HMEEEVKVPKIKGLTEAEAKAKLKSEGLESGTARSAYSDTVEEGHIISQSIQEGTKVPKGTAVSYEVSKGK | 0.22
29 | HMEEGKVKRMAMDMVDAFYDKVSAMVDDNNDLGRSVVDAWDDEEENPPEYMLDDETRAILVNAGKIEPE | 0.0884
30 | HMEEHSLRKQEMLRIIEALEQLTPKEKTVVVLYYFKGVLFKDIAMLLDVTEGRISQLHTAAMGRLKKLMD | -0.632
31 | HMEEIDLTPAEEILNKLPDNSRGYLIPTLNKIQNAYRFLPDPAMELLMEFFNVSRAEIFGVISFYPQLMI | -0.533
32 | HMEEIPYGVISAKAGAAAYDYIKKSIELGIEKKIDGVATAPIQKEAIHMAGISYIGHTEMYQGIT | 0.0683
33 | HMEEKEIGQTLSVKIRENVLSKLDMTRDLEDEEVKHIIEHEIWLAAKKHYISLEERNSIKRGIFNSL | -0.773
34 | HMEELELTIDGEMVGRIDKQLGHHFDQFSRSQIQHWIEDGHVLVNGKQVKPKYKLLVGDHVQIIPEEPQK | 0.223
35 | HMEELIIQEELANKRLDIAISLLFPELTRAHAQKLIKEGSVLVDGKPRKASYPLTAGKRLSVTLPEPE | -0.0497
36 | HMEELPVLHLKHVVVEGESLWKLAEQYLNDGTRWQEIYMLNRENISNPDLIREGQELNIQFLQGE | -1.05
37 | HMEENIKKDIEVPNIEGLTIDEAKKRLKEVNLNISIEDMEEKEGTEIITQQLPKAGIKVKEGVAIIAY | -0.211
38 | HMEEPEFEPYVVRLTAIALNVRTGPGTQYPVAMVIRGGGAFTIVAEENGFGLLKSGAGWIMLQHTERV | -0.427
39 | HMEEQELQLIQFPIASGSAWAGKAVRELILPPETLLVMLIRGTETMIPKGDTMVQEGDTAVLSASAYRDD | -1.61
40 | HMEEQKYEYHLGDVVYLGVDKYEILGITNNIVTLYDPEFPLLNKQLDFDEFEKRVKDNYANEHLKVT | -0.545
41 | HMEERDMKGSISDLVERYADQLTDEQLEEIVLGIKNGLLEEDVKSYFFLPAEDMRRIRTALEQVR | -1.6
42 | HMEESEMIAFATVAHRIVGKPVEAVMRSYRNRDNIPADIAAIVSSKFTFSVTMAEASYRNPKKSYQVNSII | 0.22
43 | HMEETLLLRESVRSALAMLAPTLRITLEMYVYRQLSPTEIALRSGVSISMVRRRLGYGLYKLRTQLIDA | -0.394
44 | HMEFEIGQEDSKKSVKQFLYNTLRLSHGQVTALKRQERGILLNGERVFVTALLQEGDRLSLLLE | -1.24
45 | HMEFFIIDHNGQQAGPFSFDQLVQKGISPETLVWKQGMADWNPAWKVEELKAVLEAVEANQSNQKAQ | -1.3
46 | HMEFGEVLAQLRQKRHISQAELGRAIFVSGGTISNYEKGVHFPDVEKLLLLADYFNVTTDYLLGRT | -0.169
47 | HMEFNQAVQDVNELSMQYAKSDVLWPEFEPKVLAFAKNELSQMPPNQWKFALQTFYNGLKQAA | -0.0767
48 | HMEFPLSPHQYSVLRLMAQGLSNKQIAERLFLSENTVKGYVQEVLRRLGARNRLEAVMIANRRGWL | -0.606
49 | HMEFPYISGVDVGTISNKEFARFETTKASDIVIALDKSGIPFSARFGDSEIVLTYDGSYKEEVEEIIAKV | -0.115
50 | HMEFSYMDQGLERYRAFLETHGHGNVPESYHELKLVNFVAHIRKLYRMNLLSEERRRALDEAGFVF | -1.24

Row | Sequence | soluble fraction (log2)
51 | HMEFVEERRNRMLDYIGENKRADVPELARHFDVTEVTIRRDLLILEQDGKLIRTHGGAMINR | -0.278
52 | HMEGDKEIPNVIGKSINDAKKILEQAGLKLGEVKKVNDSSVAKNVVLSTNPNAGTKVSAGDAVSITVAEG | 0.278
53 | HMEGGLIMDRIEKGLQSGVMPDLRGLNLKDALYLLESYVQVQVIGSGGVIKQSIKTGDKFIMGSVIKLEL | 0.041
54 | HMEGLATRLRFLRQARGLSYHALARLSGVTHTALHQIEAGKNIPGLDTAEKIAMALDVDPRWFAYGRGDPS | -0.578
55 | HMEGPALKVWKARYLRAAILEQLLSDRWDDRGGQPIRVVVNEPTNSLLIRIPRHLWPEAEKLLQELDQR | -0.312
56 | HMEGTEILVNIRKGMTKEEIASLLVSKGLVEDKNTFLVQTALYTSDRYPIQPGSYTLNTAQTPEEMLAVMT | -0.073
57 | HMEGVNLTVQEAKQMAAIIAPLLKQGQSPYQIVTNHPELGISEKTLYNYIENDVFHEIAGITVMDL | -0.881
58 | HMEHIVNELDRKVIDYLQSHYDAKLNDIAQGIGVSKATATKSIRKLVQTGIVHVVGSSGTGTSYNLTE | 0.0867
59 | HMEHVVFEVTESGELENNTAVKHVLNSFNNKSLNLAIDDFGTGYSNLRYIRDMMFGIIKIDRLFIKDINES | 0.158
60 | HMEIDFDKINSIFNDANKLYEEGDYFEANNLYKNIVSSNIISKDLYYNLGLSYAKIGSNGYAILWYERALN | -0.215
61 | HMEIEEIDYGTFLQMVEDGVVEKIELTDTQIFLTSTVDNDDKVYTTGVMPDQDLTNRLIEAGVVNFGKVV | -0.956
62 | HMEIFSIEPDSYLGSGEEIASYYREGVTVIVNMAKLSDAESLRMVDFMSGLKLALLGNIKRITKHVYLLTP | -0.966
63 | HMEIITIVSDINGKRIDAWLSEKLENYSRSFIQKLIQNENVKVNNNIVKANYKLKNGDAVAVSIPEPV | -0.261
64 | HMEILNYVVSDGQSGIRIDRYLSDSNEDLSRSYIQKLLKEQKVTVQGTFVKANYKVQAGDVITVEVPDMA | 0.238
65 | HMEILPAYRDIKKEALLGNINAEFKYVNLLLEHNYIEQAFNIIEDMKTRVDDNPEFEELKSRVADAYLMY | -1.48
66 | HMEILTLEELKRLMAKAKLKQNQISGHAGVSKQQISMILAGKRNITKDVSDNLKANLAEYFP | 0.107
67 | HMEILVSTRRHEIASLLSRKKRVSFFELFPEKTKEYVVATFLAILEMAKAREVNITQEDTFDEIIVEEA | -1.09
68 | HMEIPTPAELREKRIRMGLKQADVARMAGISQSMVARIESGSVDPRVSTLAKIVEVLQAAER | 0.185
69 | HMEISLEAKMAEVREQVRGLAGINFRTLLEMQASRSNIIVTFLAILELMKIGAIQIRQEEIFGEIIIDSRD | -0.28
70 | HMEISPGDVFKQLPGIGDDLSRRVVESLGIQSLEELESAAHDGRLEQVEGFGERRVQMVRAVLTGMLS | -1.04
71 | HMEITTEDIAAQVASWIVRLSEDLTSTDRAALQIEFEQWQQTDSRRAEIAHKMLSLIGQAEQLRKT | -0.614
72 | HMEKAISSLTLEEAKKRLEMVRSEKDASLQIYKETGSETARVTAENYGKEENSLLLHISEMSNIV | -0.209
73 | HMEKFTGELSQEEKNVLDALSHEEMHVDIIIKLTKLETSAVSSTLSLLEIKGLIKNIGGQNYIK | -0.139
74 | HMEKIIFEISEEGKRLDLYIAERTELTRTRIQQLIKDGNINVNNKKSKPSYKVEKNDFIEMIIPDE | -0.49
75 | HMEKINLIIEEDNNLRLDKVIAMQLQELSRTQIQDMINQGLVLVNQKKEKASYKTKLNDEIEITILD | -0.382
